{"source": "paper PMC4741518", "about": "“Adaptive Remodeling of the Bacterial Proteome by Specific Ribosomal Modification Regulates Pseudomonas Infection and Niche Colonisation” (PLoS Genetics, 2016)", "key": {"RimA": {"target": "T1, RimA (Pseudomonas fluorescens, UniProt A0ACD4XU64)", "T1 construct": "gene U0037_01330; full-length, His6-tagged (pETM11-rimA), E. coli BL21(DE3) pLysS, Ni-NTA purified", "T1 sequence (A0ACD4XU64 entry or part of it)": "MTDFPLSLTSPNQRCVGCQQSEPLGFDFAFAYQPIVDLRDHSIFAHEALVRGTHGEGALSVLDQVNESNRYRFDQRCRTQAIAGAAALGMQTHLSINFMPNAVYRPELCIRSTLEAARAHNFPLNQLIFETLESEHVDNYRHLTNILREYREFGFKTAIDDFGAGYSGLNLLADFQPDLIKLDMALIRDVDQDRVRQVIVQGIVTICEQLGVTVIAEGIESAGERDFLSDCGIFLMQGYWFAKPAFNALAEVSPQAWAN", "test": "phosphodiesterase assay, TLC of […]-cdG", "format": "biochemical", "settings": "labelled compound (100 μM cdG with 0.07 μM 32P-cdG); 10 mM MgCl2, pH 8.0, 30 °C; product pGpG"}, "[1]": {"target": "Ribosomal protein S6 modification protein RimK (P. fluorescens SBW25)", "sequence (C3KE61 whole entry)": "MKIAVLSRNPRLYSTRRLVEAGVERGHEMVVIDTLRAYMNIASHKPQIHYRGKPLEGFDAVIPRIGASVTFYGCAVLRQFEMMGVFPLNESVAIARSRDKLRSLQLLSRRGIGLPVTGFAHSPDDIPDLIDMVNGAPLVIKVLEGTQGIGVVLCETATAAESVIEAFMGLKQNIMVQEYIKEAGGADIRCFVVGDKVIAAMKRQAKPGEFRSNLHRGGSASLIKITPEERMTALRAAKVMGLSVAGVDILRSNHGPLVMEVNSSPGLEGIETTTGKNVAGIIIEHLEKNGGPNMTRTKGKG"}}}
{"molecule": "Nc1nc2c(ncn2[C@@H]2O[C@@H]3COP(=O)(O)O[C@H]4[C@@H](O)[C@H](n5cnc6c(=O)[nH]c(N)nc65)O[C@@H]4COP(=O)(O)O[C@H]3[C@H]2O)c(=O)[nH]1", "note": "[cdG]", "values": [{"measurement": "phosphodiesterase assay, TLC of 32P-cdG", "setting": "RimA", "result": "RimA PDE activity was subsequently confirmed (Fig 4C)"}]}
{"molecule": "Conserved EAL domain protein RimA (enzyme)", "values": [{"measurement": "RimKPf ATPase activity (linked PK/LDH assay, with glutamate): Vmax on addition of purified RimA; 234.9 without RimA", "setting": "[1]", "result": 364, "unit": "nmol/min/mg"}]}
{"molecule": "Putative uncharacterized protein RimB (natural protein)", "values": [{"measurement": "RimKPf ATPase activity (linked PK/LDH assay, with glutamate): Vmax on addition of purified RimB; 113.6 without RimB", "setting": "[1]", "result": 691, "unit": "nmol/min/mg"}]}
